The results in this text go back to patent US20090093002A1.

The target of this assay is biotinylated complete Aβ1-42 peptide (Bachem) (UniProt P05067). Put plainly: ELISA on biotinylated complete Aβ1-42 peptide. For orientation: In an ELISA, binding on a coated surface is turned into a signal by an enzyme label.
biotinylated complete Aβ1-42 peptide (Bachem), sequence (P05067 672-713 limits assumed): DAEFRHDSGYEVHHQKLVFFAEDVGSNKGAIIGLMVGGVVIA

Substance Control IgG (antibody) returned an O.D of 0.196 O.D.
